Measured values published in patent US10781456B2, “Carbon-neutral and carbon-positive photorespiration bypass routes supporting higher photosynthetic rate and yield” (Max-Planck-Gesellschaft zur Förderung der Wissenschaften …, priority 2015, dated 2020).
Like-named read-outs stand apart in the source and are kept apart here.

Experiments:
[1] = target: D-fructose 6-phosphate aldolase encoded by E. coli gene fsaA (UniProt P78055); conditions: cited from earlier work
[2] = target: D-fructose 6-phosphate aldolase encoded by E. coli gene fsaB (UniProt P32669); conditions: cited from earlier work
malonyl-CoA = malonyl-CoA reductase activity with physiological substrate malonyl-CoA; format: biochemical
Procedure: (§1) The kinetics of the MCRCa enzyme for enzymatically converting the substrate tartonyl-CoA into glycerate (via reactions 4# and 5 both catalyzed by MCRCa) were determined spectrophotometrically at 365 nm following the oxidation of NADPH. Per molecule tartronyl-CoA, two molecules of NADPH are oxidized by MCRCa (a first in reaction 4# and a second in reaction 5) The measurements were carried out at 37° C. in a total reaction volume of 200 μL containing 100 mM MOPS buffer (with 5 mM MgCl2, pH 7.5) with an initial NADPH concentration of 0.4 mM NADPH and 23 μg MCRCa.
(0.3 mM substrate, Kröger et al. 2011, loc. cit.). With tartronyl-CoA (0.25 mM), the specific activity at 37° C. was 0.6 U mg^−1.
(§2) An alternative enzyme for catalyzing the conversion of tartonyl-CoA into glycerate (via reactions 4# and 5) is the MCR from Erythrobacter sp. NAP1 (MCRE). It was tested for its activity with malonyl-CoA and for tartronyl-CoA with the assay described above for MCRCa.

tartronyl-CoA = experiment: malonyl-CoA reductase spectrophotometric assay, NADPH oxidation at 365 nm, tartronyl-CoA into glycerate (reactions 4# and 5); format: biochemical; conditions: 0.25 mM tartronyl-CoA
Procedure: as §1, §2

[3] = substrate: CC(C)(COP(=O)(O)OP(=O)(O)OC[C@H]1O[C@@H](n2cnc3c(N)ncnc32)[C@H](O)[C@@H]1OP(=O)(O)O)[C@@H](O)C(=O)NCCC(=O)NCCSC(=O)C(O)C(=O)O; experiment: MCRCa activity for conversion of tartronyl-CoA into glycerate (reactions 4# and 5), NADPH oxidation; format: biochemical, Chloroflexus aurantiacus; conditions: pH 7.5, 0.4 mM NADPH
Procedure: For the heterologous expression of the MCRCa protein (amino acid sequence is shown in SEQ ID NO: 8; corresponding nucleic acid sequence encoding the protein is depicted in SEQ ID NO: 7) the previously described pTRC-MCRCa plasmid (Kröger et al., 2011, Analytical biochemistry, 411(1), 100-105) was employed.
Cells were harvested at 10 000×g for 10 min and cell pellets were stored at −80° C. until purification of enzymes. Cell pellets of MCRCa and MCRE overexpressing cells were resuspended in two-fold volume of buffer AStrep (50 mM Tris/HCl, 150 mM NaCl, pH 7.8) containing 0.1 mg mL^−1 DNAse I. The cell suspension was passed through a French pressure cell twice at a pressure of 137 MPa and centrifuged at 100 000×g and 4° C. for 1 h. The supernatant was filtered through a 0.45 μm syringe filter and loaded at a flow rate of 1 mL min^−1 onto a 1 mL StrepTrap™ HP column (GE healthcare) which had previously been equilibrated with 5 column volumes of buffer AStrep. The column was washed with 20 column volumes of buffer AStrep and the protein was eluted with buffer AStrep containing 3 mM desthiobiotin. The enzyme was stored in buffer AStrep containing 20% glycerol.
as §1

[4] = substrate: CC(C)(COP(=O)(O)OP(=O)(O)OC[C@H]1O[C@@H](n2cnc3c(N)ncnc32)[C@H](O)[C@@H]1OP(=O)(O)O)[C@@H](O)C(=O)NCCC(=O)NCCSC(=O)CO; experiment: PCCMe_D407I_Y143H activity for conversion of glycolyl-CoA into tartronyl-CoA (reaction 3#), coupled ATP hydrolysis (PK/LDH) assay; format: biochemical, Methylobacterium extorquens; conditions: other: 37° C., pH 7.7, ATP hydrolysis assay, 0.125-3 mM glycolyl-CoA, n=2
[5] = as a substrate, read-out: KM for D-fructose 6-phosphate
[6] = bound stated for both fsaA and fsaB enzymes, read-out: KM (condensation of glycolaldehyde as donor with D-glyceraldehyde 3-phosphate as acceptor)
[7] = as a substrate, read-out: KM for dihydroxyacetone phosphate
[8] = other: 37° C., n=3, nonlinear regression
[9] = other: FIG. 8D and Table 5, 37° C., n=3

O=P(O)(O)OC[C@H]1OC(O)[C@@H](O)[C@@H]1O (stereo partly drawn) [D-arabinose 5-phosphate]
Km ([1]; read-out: KM for D-arabinose 5-phosphate): ~500 µM

O=P(O)(O)OC[C@H]1OC(O)(CO)[C@@H](O)[C@@H]1O (stereo partly drawn) [D-fructose 6-phosphate]
Km [2, 5]: > 6000 µM
Km [1, 5]: > 6000 µM

O=C[C@H](O)COP(=O)(O)O [D-glyceraldehyde 3-phosphate]
Km [2, 6]: < 1000 µM
Km [1, 6]: < 1000 µM

O=C(CO)COP(=O)(O)O [dihydroxyacetone phosphate]
Km [2, 7]: > 25000 µM
Km [1, 7]: > 25000 µM

B1: MCRE: malonyl-CoA reductase of Erythrobacter sp. NAP1, NCBI accession no. WP_007163680.1, SEQ ID NO: 10 (protein, listed as Erythrobacter sp.)
chain: MSKEGNAAKGRLEGKVALITGAAGNLGNEISRAFAREGAFVVMTGRTEERISAAREQLIADTGVAPERIDTAVLDGGNPDSIRAAMAKLRKEYGRIDILINNAGSAGPKQPLHNVPLSPQEMEACGDTETVRDAMLNILGVTWNMARIVAPMMPVGGAMVNISTIFSHTRYYGRTAYVVPKAALNALSNQLASELGPRGIRVNTVFPGPIESDRIRTVFAAMDEVQSQPKDTTANYFTGRMALTRSVNGKVDGKPLPNPKDIAGTCLFLASEEAAGIAGEEVDVTHGLSANRTSASTYMTRPSMRSLDGAGLNIFIVSGENWDDALVAAHTLIGSGAKVRLGLARNADVAQANARLKAQGIGEELTVTRFNRAEPDAMEDALAAFSGDVDGAITGAIILPVKPSGHFTGSLLAADDDTVTKFMDTELVGAIAVSRSLARYWHGREDLQSPPRCVFMTNPGDPLGNSFASVLSAGITQLIRIWRDEERVQAGNGSTEHAVWSNQIVRHTNTEDENTRFASGHATRVLFREQHIAEIDLKLPANISEETGSRKAMVGFAENITGLHLGKVAFITGGSAGIGGQVARLLALAGAKVMMVARRESELVAARDRIVGELQDIGFAGVERRVKYMADIDVSDFASLDKAVDATLEEFGRIDYLINNAGVAGAEDMVIDMEPEAWRFTLDANLISNYHLMQRVVPLMKEQGSGYVLNVSSYFGGEKFLAVAYPNRADYGLSKAGQRAMVEAFSPFLGPEVQCNAIAPGPVDGDRLSGTGGKPGLFQRRAKLILENKRLNAVYSAVIHAIREGGDAAKILTRLSRNSTSTLSHDAEAPEELRKLALDFASQGDGLCTWDQYLLTDAMAQRLLVRLQLGGFLLGSNEWASLSSSEQTWLKLSPPDDKPFLPAAQVDKVANGVGKGVISQLHLGAMPTEAEVAQATVFFLADRAVSGETFMPSGGLRVERSNTEREMFGSPKQERIDKMKGKTVWIIGEHLSDYVAATIEELVSGCGVAKVVLIAKDKSGEKAVRDQLPNDLSKDALEVLIAGDGLEEAMDEALGHWGKPTTVLSMPGEPLPDHLFEGGNPLSTKDFAHMVEANITRHYRVTRKASLYDGCQVVLVSPDVPYGSDGPGVALANFVKTSLHAFTATVAVENERLVHDVPVNQINLTRRVSSEEPRDADEHAEELRRFTRAVLLVGAPLPDAQDSRYRSKIYRGTSMTV
modifications: [CDS]1..3654 from SEQ ID NO 9
specific activity for malonyl-CoA, times lower than MCRCa (malonyl-CoA): 100 times
specific activity with malonyl-CoA (malonyl-CoA; 0.25 mM malonyl-CoA): 0.1 U mg^−1
specific activity for tartronyl-CoA, times lower than that of MCRCa (tartronyl-CoA): 6 times
specific activity with tartronyl-CoA (tartronyl-CoA; 37° C.): 0.1 U mg^−1

B2: malonyl-CoA reductase from Chloroflexus aurantiacus (MCRCa), SEQ ID NO: 8 (Chloroflexus aurantiacus) (protein)
chain: MSGTGRLAGKIALITGGAGNIGSELTRRFLAEGATVIISGRNRAKLTALAERMQAEAGVPAKRIDLEVMDGSDPVAVRAGIEAIVARHGQIDILVNNAGSAGAQRRLAEIPLTEAELGPGAEETLHASIANLLGMGWHLMRIAAPHMPVGSAVINVSTIFSRAEYYGRIPYVTPKAALNALSQLAARELGARGIRVNTIFPGPIESDRIRTVFQRMDQLKGRPEGDTAHHFLNTMRLCRANDQGALERRFPSVGDVADAAVFLASAESAALSGETIEVTHGMELPACSETSLLARTDLRTIDASGRTTLICAGDQIEEVMALTGMLRTCGSEVIIGFRSAAALAQFEQAVNESRRLAGADFTPPIALPLDPRDPATIDAVFDWGAGENTGGIHAAVILPATSHEPAPCVIEVDDERVLNFLADEITGTIVIASRLARYWQSQRLTPGARARGPRVIFLSNGADQNGNVYGRIQSAAIGQLIRVWRHEAELDYQRASAAGDHVLPPVWANQIVRFANRSLEGLEFACAWTAQLLHSQRHINEITLNIPANISATTGARSASVGWAESLIGLHLGKVALITGGSAGIGGQIGRLLALSGARVMLAARDRHKLEQMQAMIQSELAEVGYTDVEDRVHIAPGCDVSSEAQLADLVERTLSAFGTVDYLINNAGIAGVEEMVIDMPVEGWRHTLFANLISNYSLMRKLAPLMKKQGSGYILNVSSYFGGEKDAAIPYPNRADYAVSKAGQRAMAEVFARFLGPEIQINAIAPGPVEGDRLRGTGERPGLFARRARLILENKRLNELHAALIAAARTDERSMHELVELLLPNDVAALEQNPAAPTALRELARRFRSEGDPAASSSSALLNRSIAAKLLARLHNGGYVLPADIFANLPNPPDPFFTRAQIDREARKVRDGIMGMLYLQRMPTEFDVAMATVYYLADRNVSGETFHPSGGLRYERTPTGGELFGLPSPERLAELVGSTVYLIGEHLTEHLNLLARAYLERYGARQVVMIVETETGAETMRRLLHDHVEAGRLMTIVAGDQIEAAIDQAITRYGRPGPVVCTPFRPLPTVPLVGRKDSDWSTVLSEAEFAELCEHQLTHHFRVARKIALSDGASLALVTPETTATSTTEQFALANFIKTTLHAFTATIGVESERTAQRILINQVDLTRRARAEEPRDPHERQQELERFIEAVLLVTAPLPPEADTRYAGRIHRGRAITV
Km [3, 8]: 25.7 ± 2.6 µM
Vmax [3, 8]: 635±14 mU/mg
Km [3, 9]: 0.03 ± 0.003 mM (tartronyl-CoA) mM
Vmax [3, 9]: 0.6 ± 0.01 U mg^−1

B3: propionyl-CoA carboxylase from Methylobacterium extorquens (PCCMe) variant PCCMe_D407I_Y143H (pccA SEQ ID NO: 2; pccB_D407I_Y143H SEQ ID NO: 6) (Methylorubrum … (protein)
chain 1: MKDILEKLEERRAQARLGGGEKRLEAQHKRGKLTARERIELLLDHGSFEEFDMFVQHRSTDFGMEKQKIPGDGVVTGWGTVNGRTVFLFSKDFTVFGGSLSEAHAAKIVKVQDMALKMRAPIIGIFDAGGARIQEGVAALGGHGEVFRRNVAASGVIPQISVIMGPCAGGDVYSPAMTDFIFMVRDTSYMFVTGPDVVKTVTNEVVTAEELGGAKVHTSKSSIADGSFENDVEAILQIRRLLDFLPANNIEGVPEIESFDDVNRLDKSLDTLIPDNPNKPYDMGELIRRVVDEGDFFEIQAAYARNIITGFGRVEGRTVGFVANQPLVLAGVLDSDASRKAARFVRFCNAFSIPIVTFVDVPGFLPGTAQEYGGLIKHGAKLLFAYSQATVPLVTIITRKAFGGAYIVMASKHVGADLNYAWPTAQIAVMGAKGAVEIIFRAEIGDADKIAERTKEYEDRFLSPFVAAERGYIDEVIMPHSTRKRIARALGMLRTKEMEQPWKKHDNIPL
chain 2: MFDKILIANRGEIACRIIKTAQKMGIKTVAVYSDADRDAVHVAMADEAVHIGPAPAAQSYLLIEKIIDACKQTGAQAVHPGYGFLSERESFPKALAEAGIVFIGPNPGAIAAMGDKIESKKAAAAAEVSTVPGFLGVIESPEHAVTIADEIGYPVMIKASAGGGGKGMRIAESADEVAEGFARAKSEASSSFGDDRVFVEKFITDPRHIEIQVIGDKHGNVIYLGERECSIQRRNQKVIEEAPSPLLDEETRRKMGEQAVALAKAVNYDSAGTVEFVAGQDKSFYFLEMNTRLQVEHPVTEMITGLDLVELMIRVAAGEKLPLSQDQVKLDGWAVESRVYAEDPTRNFLPSIGRLTTYQPPEEGPLGGAIVRNDTGVEEGGEIAIHYDPMIAKLVTWAPTRLEAIEAQATALDAFAIEGIRHNIPFLATLMAHPRWRDGRLSTGFIKEEFPEGFIAPEPEGPVAHRLAAVAAAIDHKLNIRKRGISGQMRDPSLLTFQRERVVVLSGQRFNVTVDPDGDDLLVTFDDGTTAPVRSAWRPGAPVWSGTVGDQSVAIQVRPLLNGVFLQHAGAAAEARVFTRREAELADLMPVKENAGSGKQLLCPMPGLVKQIMVSEGQEVKNGEPLAIVEAMKMENVLRAERDGTISKIAAKEGDSLAVDAVILEFA
Km [4]: 1.0 ± 0.15 mM (glycolyl-CoA) mM
Vmax [4]: 1.5 ± 0.09 U mg^−1
